In this series the test system is T1, O=C1O[C@H]([C@@H](O)CO)C(O)=C1O.
T1 construct: expressed in transfected cells; host or cells: HEK-TREx cells, tetracycline-induced
In words: hSVCT2 direct uptake assay in HEK-TREx-hSVCT2 cells (LC-MS-MS). The series is classed as cell-based, human. The settings on record: other: HEK-TREx-hSVCT2 cells induced to express hSVCT2. The protocol:
A modified direct uptake assay was developed to determine the ability of test compounds to be transported into HEK-TREx cells induced to over-express hSVCT2. Four concentrations (bracketing the affinity as measured by competition assays) per compound were routinely tested. Non-specific uptake was determined by measuring the uptake into cells not induced to express the transporter (“no tet”).
The direct uptake assays were prepared as follows: Compounds were prepared for assay by diluting a 100 mM stock concentration (in DMSO or water, depending on compound solubility) to the appropriate working concentration. Typically, four concentrations bracketing the IC50 were tested. The highest test concentration for each compound was made in an Eppendorf tube and diluted into HBSS. The samples were robustly vortexed and centrifuged for 10 minutes at 13,200 rpm to spin down any precipitate. The supernatant from these samples (˜150 μl/well) was carefully removed and placed into six wells of row A (cmpd 1: A1-6; cmpd 2: A7-12) or row E (cmpd 3: E1-6; cmpd 4: E7-12) of a 96-well polypropylene “compound” plate. Three additional 2-fold dilutions were made in the subsequent rows (B-D or […]) in HBSS. […]

As for hSVCT2 (Homo sapiens), the Km (in general, the concentration of substrate that gives half-maximal velocity) was found to be 14 µM.

The record behind these values is patent US7625718B2, “SVCT2 transporters expressed in blood brain barrier cells” (XenoPort, Inc., priority 2005, dated 2009).
